The target of this experiment is T1, human DLL3.FLAG (Adipogen #AG-40B-0151, amino acid 27-466) (human, UniProt Q9NYJ7 27-466).
T1 construct: range 27-466; The ELISA used human DLL3.FLAG or human DLL3.HIS (abcam #ab255797, amino acid 27-492); not shown: FLAG tag
T1 sequence (looked up): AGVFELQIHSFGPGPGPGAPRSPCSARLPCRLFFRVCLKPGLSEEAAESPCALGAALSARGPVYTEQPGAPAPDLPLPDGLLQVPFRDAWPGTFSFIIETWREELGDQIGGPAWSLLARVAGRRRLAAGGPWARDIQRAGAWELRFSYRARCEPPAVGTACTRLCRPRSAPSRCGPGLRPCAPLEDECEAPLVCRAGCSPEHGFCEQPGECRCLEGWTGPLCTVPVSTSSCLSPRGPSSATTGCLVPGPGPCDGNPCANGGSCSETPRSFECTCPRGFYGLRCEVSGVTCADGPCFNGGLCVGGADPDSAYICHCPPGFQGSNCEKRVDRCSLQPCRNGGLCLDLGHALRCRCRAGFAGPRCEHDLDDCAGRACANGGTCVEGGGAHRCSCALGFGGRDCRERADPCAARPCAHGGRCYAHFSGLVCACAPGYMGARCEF
Briefly: ELISA, plate coated with hDLL3-Flag, goat anti-human IgG Fc-HRP, TMB, A450. (In an ELISA, binding on a coated surface is turned into a signal by an enzyme label.)

B1: Rovalpituzumab (Creative Biolabs #TAB-216CL) (antibody, V domains shown)
VH: QVQLVQSGAEVKKPGASVKVSCKASGYTFTNYGMNWVRQAPGQGLEWMGWINTYTGEPTYADDFKGRVTMTTDTSTSTAYMELRSLRSDDTAVYYCARIGDSSPSDYWGQGTLVTVSS
VL: EIVMTQSPATLSVSPGERATLSCKASQSVSNDVVWYQQKPGQAPRLLIYYASNRYTGIPARFSGSGSGTEFTLTISSLQSEDFAVYYCQQDYTSPWTFGQGTKLEIK
Usually EC50 (read off the curve) stands for the concentration giving half of the maximal effect. A high value points to a need for much substance. Consider B1, for which the “EC50 (read off the curve)” value was approximately 0.08 nM.

The values above are taken from patent US20240207462A1 (ABDERA THERAPEUTICS, published 2024).
